Assay results reported in article PMC12036459.
Each block holds one substance with its values, some of them ahead of it.

Experiments:
[1] = target: tubulin (taxol-stabilized microtubules); assay: single-molecule TIRF on bare microtubules; details: reference: E. coli tau (non-phosphorylated)
[2] = target: tau (human 2N4R) dGAE, 297-391 (UniProt P10636); assay: filament co-assembly, ultracentrifugation, SDS-PAGE
tau (human 2N4R) [3] = target: tau (human 2N4R) (UniProt P10636); assay: Hill coefficient of microtubule binding curve; details: reference: E. coli tau (non-phosphorylated)
tau (human 2N4R) [4] = target: tau (human 2N4R) (UniProt P10636); assay: single-molecule TIRF dwell time inside envelopes; details: reference: E. coli SNAP-tau (non-phosphorylated); sites T181,S198,S202,S210,T231,S235,S237,S352,S396,S404,S422
[5] = sites T181,S202,S210,T231,S235,S237,S241,S258,S262,T319,T373,T377,T403,S404
[6] = sites T181,S198,S202,S210,T231,S235,S237,S352,S396,S404,S422

Sequence of tau (human 2N4R) (P10636 whole entry, looked up, stated change not applied): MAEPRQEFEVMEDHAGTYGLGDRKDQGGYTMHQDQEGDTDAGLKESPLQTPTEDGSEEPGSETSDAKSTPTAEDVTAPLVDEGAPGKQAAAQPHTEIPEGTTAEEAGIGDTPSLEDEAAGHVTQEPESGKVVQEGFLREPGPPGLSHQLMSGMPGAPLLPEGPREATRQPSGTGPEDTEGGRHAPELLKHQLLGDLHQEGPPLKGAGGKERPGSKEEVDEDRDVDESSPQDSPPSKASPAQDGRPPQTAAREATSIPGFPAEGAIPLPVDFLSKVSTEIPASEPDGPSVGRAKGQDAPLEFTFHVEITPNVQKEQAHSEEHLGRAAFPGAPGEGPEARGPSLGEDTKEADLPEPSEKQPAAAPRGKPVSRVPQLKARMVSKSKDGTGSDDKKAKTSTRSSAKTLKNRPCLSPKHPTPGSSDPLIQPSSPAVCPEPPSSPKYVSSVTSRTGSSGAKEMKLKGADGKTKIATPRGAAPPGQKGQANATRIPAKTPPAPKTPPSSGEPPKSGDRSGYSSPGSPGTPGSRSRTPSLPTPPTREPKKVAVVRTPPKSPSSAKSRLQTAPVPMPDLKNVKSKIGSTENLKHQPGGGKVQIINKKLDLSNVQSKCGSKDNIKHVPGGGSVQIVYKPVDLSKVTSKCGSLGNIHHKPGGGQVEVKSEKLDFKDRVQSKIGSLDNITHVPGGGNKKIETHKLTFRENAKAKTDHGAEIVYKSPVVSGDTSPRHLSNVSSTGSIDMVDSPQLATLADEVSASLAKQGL

other: dwell time [1, 5]: weaker; reference ~ 4.3
other: t1/2 of co-pelleting ([2]; reference: E. coli tau (non-phosphorylated), sites T181,S202,S210,T231,S235,S237,S241,S258,S262,T319,T373,T377,T403,S404): same; reference ~ 14
other: Hill coefficient (tau (human 2N4R) [3]; [5]): same; reference 1.24
Substance: tau (human 2N4R) (from UniProt P10636-8) HEK tau

other: dwell time (tau (human 2N4R) [4]): weaker; reference ~ 6.06
Substance: tau (human 2N4R) (from UniProt P10636-8) Sf9 SNAP-tau

other: dwell time [1, 6]: weaker; reference ~ 4.3
other: t1/2 of co-pelleting ([2]; reference: E. coli tau (non-phosphorylated), sites T181,S198,S202,S210,T231,S235,S237,S352,S396,S404,S422): stronger; reference ~ 14
other: t1/2 of co-pelleting ([2]; reference: HEK tau, sites S210,S422): stronger; reference ~ 12
other: Hill coefficient (tau (human 2N4R) [3]; [6]): stronger; reference 1.24
Substance: tau (human 2N4R) (from UniProt P10636-8) Sf9 tau
